In the test the test system is MD-2. As to the kind of experiment: Formation of [^14C]-LOS-MD-2 complex monitored by gel filtration chromatography. It is filed as binding, human. The note with it: 30 min, 37° C., Sephacryl S100. How it is done: In FIG. 2, a bioactive complex (Mr˜25,000) containing MD-2 and [^14C]-LOS is formed by incubation of [^14C]-LOS-sCD14 with wt, but not C95Y, MD-2. In FIG. 2A, dialyzed control insect cell medium (◯) or medium containing wt (♦) or C95Y ( ? ) MD-2 was incubated for 30 min, 37° C. with (1:1 vol/vol) [^14C]-LOS-sCD14 in HBSS+, 10 mM HEPES and chromatographed on Sephacryl S100. Column fractions were analyzed for [^14C]-LOS. Identical results were obtained in analytical (5 ng [^14C]-LOS/ml+200 μl culture medium) or more preparative runs (reagents concentrated 20×). […] Cell activation was measured by IL-8 accumulation. […]
Purified [^14C]-LOSagg or [^14C]-LOS-sCD14 (3 ng LOS/ml)+/−indicated proteins (30 ng/ml LBP, 250 ng/ml sCD14, 60 μl culture medium) were incubated at 37° C. for 30 min. After this incubation, samples were analyzed by gel filtration chromatography to monitor formation of [^14C]-LOS-MD-2 and by incubation with HEK/TLR4 cells to measure cell activation.
Columns of Sephacryl HR S200 (1.6 cm×30 cm) or S100 (1.0 cm×60 cm) were pre-equilibrated in 10 mM HEPES, HBSS^++/−0.1% HSA. […] Aliquots of the collected fractions were analyzed by liquid scintillation spectroscopy using a Beckman LS liquid scintillation counter to detect [^14C]-LOS. […]

B1: wt MD-2: soluble polyhistidine-tagged recombinant wild-type MD-2 in conditioned insect cell culture medium (protein)
chain: QKQYWVCNSSDASISYTYCDKMQYPISINVNPCIELKRSKGLLHIFYIPRRDLKQLYFNLYITVNTMNLPKRKEVICRGSDDDYSFCRALKGETVNTTISFSFKGIKFSKGKYKCVVEAISGSPEEMLFCLEFVILHQPNSNHHHHHH
Turning to B1, the “reaction with [^14C]-LOS-sCD14 to generate new Mr˜25,000 [^14C]-LOS-containing complex” value is reported as “efficiently generated”.

(Values after patent US7164008B2, “Isolated complexes of endotoxin and MD-2” (priority 2003, dated 2007).)
